From patent publication US20170096478A1, “THERAPEUTIC AGENT FOR INFLAMMATORY DISEASE” (Josai University Corporation, priority 2012, published 2017)

Columns and labels:
[1] = tested on: T cells from a Balb/c mouse; test: MLR tests with T cells with or without mitochondria ATP synthase knock-down by siRNA; type: cell-based
[2] = tested on: lipopolysaccharide (LPS)-induced lethal sepsis; test: Test Example 8-1: survival in LPS-induced lethal sepsis; type: in vivo, BALB/c mice
Experimental: (§1) BALB/c mice (bodyweight of 20 g to 30 g when starting the experiments, n=10) were raised in a plastic cage under SPF and thermo-hydrostat (22±1° C., 55±5%) conditions under 12-hour light-dark cycle. Foods and water were supplied ad libitum. Then, by intraperitoneally administering LPS to the mice at a dose of 40 mg/kg, lipopolysaccharide (LPS)-induced lethal sepsis as an inflammatory disease was induced in the same manner as Test Example 7. SSV mAb dissolved in physiological saline was intraperitoneally administered totally 3 times, i.e., at 30 minutes before, 6 hours after and 12 hours after the intraperitoneal administration of LPS, in an amount of 100 μg/dose in terms of the amount of SSV mAb. The survival of the animals thereafter was tested. To the control group, IgG (SIGMA) dissolved in physiological saline was administered in place of SSV mAb in the same manner.

[3] = biological target: histone H4 (Homo sapiens, UniProt P62805); test: ELISA affinity for histone H4; type: binding; settings: absorbance at 405 nm, 5 μg/mL antibody, compared with histone H1
Experimental: (§2) The Affinities between histone H1 or core histone and SSVmAb were determined by ELISA.
(§3) A 96 well microplate was coated with histone H1, H2A, H2B, H3 or H4. Each histone used was dissolved in 100 mM sodium carbonate buffer (pH 9.3). The plate was washed with PBS-tween 20 (0.05%), and blocked with 3% skim milk and 1% BSA for 1 hour. To each well, 5 μg/mL SSVmAb was added, and incubated for 1 hour. Bound SSVmAb was detected using peroxidase (HRP) conjugated anti mouse IgG1 Ab (SIGMA), and incubated for 1 hour. Bound SSVmAb was detected using the ABTS [2,2′-azino-bis(3-ethylbenzothiazoline-sulfonic acid)] substrate solution, and absorbance at 405 nm was measured using Multiskan Ascent (Thermo Fisher Scientific Inc., Waltham, Mass.).
(§4) After the end of the tests, binding assays of SSV mAb with histone H1, histone H3 and histone H4 were carried out by ELISA in the same manner as Test Example 2.

[4] = tested on: lipopolysaccharide (LPS)-induced lethal sepsis; test: Test Example 8-2: histone concentration in serum and inflammatory tissue (lung); type: in vivo, BALB/c mice
Experimental: as §1
In Test Example 8, heart-derived blood or lung tissue was obtained from control group and SSV mAb-administered group under general anesthesia according to the method conducted by Hasegawa et al. (Surg Res. 2012 May 1; 174(1):136-41.). The concentration of histone H1, histone H3 and H4 of the obtained samples were measured by using a commercially available measurement kit using ELISA.

[5] = tested on: lipopolysaccharide (LPS)-induced lethal sepsis; test: Test Example 8-3: staining test of lung tissue; type: in vivo, BALB/c mice; settings: after the end of Test Example 8
Experimental: as §1
After the end of Test Example 8, lung tissue sections were each obtained from […] of control group and SSV mAb-administered group, and stained by using hematoxylin and eosin stain (from Wako Pure Chemical Industries, Ltd.) according to the method conducted by Hasegawa et al. (Surg Res. 2012 May 1; 174(1):136-41.). Next, micrographs of the obtained samples were taken.
As a reference, micrographs of lung tissue slices from healthy rats were taken in the same manner.

[6] = tested on: lipopolysaccharide (LPS)-induced lethal sepsis; test: Test Example 8-4: evaluation of congestion, edema, inflammation and bleeding; type: in vivo, BALB/c mice; settings: vs control group
Experimental: as §1
After the end of Test Example 8, scores of congestion, edema, inflammation and bleeding were evaluated according to the method of Murakami et al. (Shock, 18 (2002), p. 236). In particular, magnified images of 24 visual fields under a microscope were subjected to observation. The degrees of deterioration of congestion, edema and inflammation in the SSV mAb-administered group and the control group were evaluated on a 5-point scale ranging from 0 to 4 (4 is the highest deterioration).

[7] = tested on: spleen lymphocytes from a naive DA rat (responsive cells) and from a LEW rat (stimulated cells); test: MLR tests (mixed lymphocyte reaction, BrdU incorporation); type: cell-based
Experimental: Spleen lymphocytes from a naive DA rat (responsive cells) and spleen lymphocytes from a LEW rat treated with mitomycin-C (Kyowa Hakko Kogyo Co., Ltd.) (stimulated cells) were used. The responsive cells were adjusted to 5×10^5 cells/mL with 10% FCS-RPMI culture medium, and the stimulated cells were adjusted to 8×10^6 cells/mL with 10% FCS-RPMI culture medium. After plating the responsive cell suspension and the stimulated cell suspension in an amount of 100 μL to a 96 well round-bottom plate (Nunc Brand Products) respectively, the monoclonal antibody 16G9mAb of Reference Example 1 (0.1, 2, 4, or 6 μg/mL/well) or the monoclonal antibody SSVmAb of Example 1 (4 μg/mL/well) was added at the start of mixed culture, and cultured for 3.5 days or longer under the conditions of 37° C., 5% CO2/95% air. In addition, an immunosuppressive agent tacrolimus (FK506: Fujisawa Pharmaceutical Co., Ltd., 1 nM/well) was added as a positive control. Further, 10 μL bromo deoxyuridine (BrdU) was added 15 hours before the end of culture. Then the proliferation potential of the cells treated with the immunosuppressive agent was measured using BrdU labeling & detection kit III (Roche Diagnostics K.K.) using the amount of BrdU incorporated into cellular DNA as an indicator.

[8] = tested on: histone H3; test: ELISA affinity for histone H3; type: binding; settings: absorbance at 405 nm, 5 μg/mL antibody, compared with histone H1
Experimental: as §2, §3, §4

[9] = tested on: histone H2B; test: ELISA affinity for histone H2B; type: binding; settings: absorbance at 405 nm; 5 μg/mL antibody; compared with histone H1
Experimental: as §2, §3

B1: SSV mAb: monoclonal antibody (IgG1) produced by Mouse-Mouse hybridoma SSV-C 93-3 (NITE BP-972), raised against peptide … (SEQ ID NO:1)-KLH conjugate (antibody, V domains shown)
VH: EIQLQQSGAELVKPGASVKISCKASGYSFTGYNMNWVKQSHGKSLEWIGNINPYYGSTSYNQKFKGKATLTVDKSSSTAYMQLNSLTSEDSAVYYCARSPYYSNYWRYFDYWGQGTTLTVSS
VL: QIVLSQSPAILSASPGEKVTMTCRASSSVSYMHWYQQKPGSSPKPWIYATSNLASGVPARFSGSGSGTSYSLTISRVEAEDAATYYCQQWSSNPWTFGGGTKLEIK
cell growth inhibition in MLR compared with Isotype IgG1 ([1]; ATP synthase knocked down): no significant difference
cell growth inhibition in MLR compared with Isotype IgG1 ([1]; ATP synthase not knocked down): significantly inhibited cell growth
survival rate ([2]; 24 hours after administration of LPS 40 mg/kg i.p., 100 μg/dose i.p. 3 times): 70%
survival rate relative to that of the control group ([2]; 70 hours after administration of LPS, p<0.05): about 3.5 times
affinity for histone H4 (ELISA) [3]: binding capacity
affinity for histone H4 (ELISA) ([3]; listed as SSVmAb): higher than the affinity for histone H1
concentration of histone H3 in blood sample ([4]; FIG. 10A, vs control group): lower than the control group
concentration of histone H3 in inflammatory tissue (lung) ([4]; FIG. 10B, vs control group): lower than the control group
concentration of histone H1 in blood sample ([4]; serum, during the test): almost kept constant without increase
concentration of histone H3 in blood sample ([4]; stated under the histone H4 results, FIG. 11A, vs control group): tend to be lower than the control group
concentration of histone H3 in inflammatory tissue (lung) ([4]; stated under the histone H4 results, FIG. 11B, vs control group): tend to be lower than the control group
concentration of histone H1 in inflammatory tissue (lung) ([4]; vs control group): more significantly decreased than that from the control group
inflammation in lungs (hematoxylin and eosin stained lung tissue sections) [5]: not observed
score of congestion ([6]; 5-point scale 0 to 4): significantly lower
score of edema ([6]; 5-point scale 0 to 4): significantly lower
score of inflammation ([6]; 5-point scale 0 to 4): significantly lower
score of bleeding [6]: significantly lower
absorbance which indicates the amount of incorporated BrdU ([7]; 4 μg/mL/well, mean±S.E.): 0.552±0.114
absorbance (incorporated BrdU) compared with Reference Example 1 (16G9mAb) and tacrolimus (FK506) ([7]; SSVmAb 4 μg/mL/well, FK506 1 nM/well): lower
mean absorbance of Example 1 relative to that of Reference Example 1 ([7]; same amount added, 4 μg/mL/well): about 41%
affinity for histone H3 (ELISA) [8]: binding capacity
affinity for histone H3 (ELISA) ([8]; listed as SSVmAb): higher than the affinity for histone H1
affinity for histone H2B (ELISA) [9]: higher than the affinity for histone H1
